{
  "source": "paper PMC6759063",
  "about": "(Oncogene, 2008)",
  "target": "cyclin D1 (human (endogenous in HK18), UniProt P24385 1-295)",
  "sequence (P24385 whole entry)": "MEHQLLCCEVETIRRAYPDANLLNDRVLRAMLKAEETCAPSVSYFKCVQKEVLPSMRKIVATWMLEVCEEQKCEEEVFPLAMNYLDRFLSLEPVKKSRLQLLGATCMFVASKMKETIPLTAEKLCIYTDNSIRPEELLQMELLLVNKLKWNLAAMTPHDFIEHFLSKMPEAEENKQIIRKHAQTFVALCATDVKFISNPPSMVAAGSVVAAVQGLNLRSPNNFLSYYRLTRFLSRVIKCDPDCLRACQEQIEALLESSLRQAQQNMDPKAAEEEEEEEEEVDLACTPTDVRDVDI",
  "experiment": "co-IP",
  "data": [
    {"binder": "14-3-3ζ (natural protein, human (endogenous in HK18), UniProt P63104 1-245, looked up) MDKNELVQKAKLAEQAERYDDMAACMKSVTEQGAELSNEERNLLSVAYKNVVGARRSSWRVVSSIEQKTEGAEKKQQMAREYREKIETELRDICNDVLSLLEKFLIPNASQAESKVFYLKMKGDYYRYLAEVAAGDDKKGIVDQSQQAYQEAFEISKKEMQPTHPIRLGLALNFSVFYYEILNSPEKACSLAKTAFDEAIAELDTLSEESYKDSTLIMQLLRDNLTLWTSDTQGDEAEAGEGGEN", "values": [
      {"measurement": "fold decrease of the co-precipitated complex after LDIR (densitometry)", "value": "~50", "unit": "times"}
    ]}
  ]
}
